According to patent publication US20190338048A1:
Where two headings read alike, the source gives them in different places. Blank lines part the entries; values can stand above or below the substance they belong to.

How the values were obtained:
[1] = target: Pertuzumab kappa light chain S131K_L135A; experiment: LCCA
[2] = target: Pertuzumab kappa light chain Q124E_Q160E_S176A_T178A_T180E (L2), N-terminal HA tag; experiment: LCCA, SPR of light chain tags
[3] = target: CAT-2200 heavy chain Fab construct (H1) L124E; experiment: LCCA, SPR tag read-out
[4] = target: Pertuzumab kappa light chain S121K_S131K; experiment: LCCA
[5] = target: Pertuzumab kappa light chain S121K_T129K_S131K; experiment: LCCA
[6] = target: Pertuzumab kappa light chain Q124K_S176A_T178R; experiment: LCCA
[7] = target: CAT-2200 lambda light chain Y178K; experiment: LCCA
[8] = target: Pertuzumab kappa light chain Q124E_V133D_S176E_T178E_T180E; experiment: LCCA
[9] = target: Pertuzumab kappa light chain Q124E_V133D_S176E_T180E; experiment: LCCA
[10] = target: CAT-2200 lambda light chain K129T_V133W_S180E; experiment: LCCA
[11] = target: Pertuzumab kappa light chain Q124K_V133A_T178R; experiment: LCCA
[12] = target: Pertuzumab kappa light chain S131K_S176K; experiment: LCCA
[13] = target: Pertuzumab kappa light chain S131K_L135W_S176K; experiment: LCCA
[14] = target: Pertuzumab kappa light chain S131K_S176K; experiment: LCCA; remark: listed apart in the source
[15] = target: Pertuzumab kappa light chain S131K_S176K; experiment: LCCA; remark: listed apart in the source
[16] = target: Pertuzumab kappa light chain S131K_S176K; experiment: LCCA; remark: listed apart in the source
[17] = target: CAT-2200 heavy chain Fab construct (H1) L143E_K145T_Q179E; experiment: LCCA, SPR tag read-out
[18] = target: Pertuzumab kappa light chain Q124E_V133G_S176D_T178E_T180E; experiment: LCCA
[19] = target: Pertuzumab kappa light chain Q124E_V133G_S176D_T180E; experiment: LCCA
[20] = target: Pertuzumab kappa light chain Q124E_V133G_S176D; experiment: LCCA
[21] = target: Pertuzumab kappa light chain Q124E_V133G_S176D_T180E; experiment: LCCA; remark: listed apart in the source
[22] = target: Pertuzumab kappa light chain Q124E_V133G_S176D; experiment: LCCA; remark: listed apart in the source
[23] = target: Pertuzumab kappa light chain V133G_L135W_S176D_T180E; experiment: LCCA
[24] = target: Pertuzumab kappa light chain V133G_L135W_S176D; experiment: LCCA
[25] = target: Pertuzumab kappa light chain V133G_S176D_T180E; experiment: LCCA
[26] = target: Pertuzumab kappa light chain V133G_S176D; experiment: LCCA
[27] = target: Pertuzumab kappa light chain S121K_S131K_S176K; experiment: LCCA
[28] = target: Pertuzumab kappa light chain S121K_S131K_S176K; experiment: LCCA; remark: listed apart in the source
[29] = target: Pertuzumab kappa light chain V133D (L2), N-terminal HA tag; experiment: LCCA, SPR of light chain tags
[30] = target: Pertuzumab kappa light chain V133D (L2), N-terminal HA tag; experiment: LCCA, SPR of light chain tags; remark: listed apart in the source
[31] = target: CAT-2200 lambda light chain S176K_Y178K (L1), N-terminal FLAG tag; experiment: LCCA, SPR of light chain tags
[32] = target: Pertuzumab kappa light chain Q124R_L135W_Q160K_T178R; experiment: LCCA
[33] = target: Pertuzumab kappa light chain Q124R_L135W_T178R; experiment: LCCA
[34] = target: Pertuzumab kappa light chain Q124R_Q160K_T178R; experiment: LCCA
[35] = target: Pertuzumab kappa light chain Q124R_Q160K_T178R; experiment: LCCA; remark: listed apart in the source
[36] = target: Pertuzumab kappa light chain Q124E_S176E_T178D_T180E; experiment: LCCA
[37] = target: Pertuzumab kappa light chain Q124E_S176E_T178E_T180E; experiment: LCCA
[38] = target: Pertuzumab kappa light chain Q124E_S176E_T180E; experiment: LCCA
[39] = target: CAT-2200 lambda light chain Y178K; experiment: LCCA; remark: listed apart in the source
[40] = target: Pertuzumab kappa light chain Q124E_Q160E_S176D_T178D_T180E; experiment: LCCA
[41] = target: Pertuzumab kappa light chain Q124E_Q160E_S176D_T178D; experiment: LCCA
[42] = target: CAT-2200 lambda light chain, wild type (L1), N-terminal FLAG tag; experiment: LCCA, SPR of light chain tags
[43] = target: CAT-2200 lambda light chain S176E_Y178E (L1), FLAG-tagged; experiment: LCCA, SPR of light-chain tags
[44] = target: CAT-2200 lambda light chain V133L_S176D_Y178E (L1), FLAG-tagged; experiment: LCCA, SPR of light-chain tags
[45] = target: Pertuzumab kappa light chain V133A_S176K_T178A (L2), HA-tagged; experiment: LCCA, SPR of light-chain tags
[46] = target: Pertuzumab kappa light chain V133G_S176R_T178A (L2), HA-tagged; experiment: LCCA, SPR of light-chain tags
[47] = target: Pertuzumab kappa light chain V133A_S176K_T178A (L2), HA-tagged; experiment: LCCA, SPR of light-chain tags; remark: listed apart in the source
[48] = target: Pertuzumab kappa light chain V133G_S176R_T178A (L2), HA-tagged; experiment: LCCA, SPR of light-chain tags; remark: listed apart in the source
[49] = target: CAT-2200 lambda light chain S176E_Y178E (L1), FLAG-tagged; experiment: LCCA, SPR of light-chain tags; remark: listed apart in the source
[50] = target: CAT-2200 lambda light chain V133L_S176D_Y178E (L1), FLAG-tagged; experiment: LCCA, SPR of light-chain tags; remark: listed apart in the source
[51] = target: CAT-2200 heavy chain Fab construct (H1) L143E_K145T; experiment: LCCA, SPR tag read-out
[52] = target: CAT-2200 lambda light chain S122D_Y178K; experiment: LCCA
[53] = target: Pertuzumab kappa light chain S121K_V133G_S176D; experiment: LCCA
[54] = target: CAT-2200 heavy chain Fab construct (H1) Q179K; experiment: LCCA, SPR tag read-out
[55] = target: CAT-2200 heavy chain Fab construct (H1) D146G_Q179K; experiment: LCCA, SPR tag read-out
[56] = target: CAT-2200 heavy chain Fab construct (H1) Q179K; experiment: LCCA, SPR tag read-out; remark: listed apart in the source
[57] = target: CAT-2200 heavy chain Fab construct (H1) S186R; experiment: LCCA, SPR tag read-out
[58] = target: CAT-2200 heavy chain Fab construct (H1) S186R; experiment: LCCA, SPR tag read-out; remark: listed apart in the source

- H2L2:H2L1 median scalar value [1]: -0.45 ln
Substance: Pertuzumab Fab heavy chain K145T_Q179E_S188F_V190F

- H2L2:H2L1 normalized median scalar value ln(r1/f1) [2]: 2.64
Substance: Pertuzumab Fab heavy chain S186R_S188W (H2), ABD2-His6 tagged

- H2L2:H2L1 median scalar value [4]: -0.1 ln
- H2L2:H2L1 median scalar value [5]: 0.07 ln
- H2L2:H2L1 normalized median ratio [5]: 51%
Substance: Pertuzumab Fab heavy chain K145T_Q179E_K228D

- H2L2:H2L1 median scalar value [6]: 0.43 ln
Substance: Pertuzumab Fab heavy chain L143E_K145T_S188W

- H2L2:H2L1 median scalar value [12]: 2.25 ln
- H2L2:H2L1 median scalar value [13]: -0.33 ln
- H2L2:H2L1 median scalar value [14]: 0.9 ln
- H2L2:H2L1 median scalar value [15]: 1.58 ln
- H2L2:H2L1 median scalar value [16]: 0.53 ln
Substance: Pertuzumab Fab heavy chain K145T_S186E

- H1L1:H1L2 normalized median scalar value ln(r1/f1) [17]: -0.13
Substance: CAT-2200 lambda light chain construct (L1) E124K_Y178R, FLAG-tagged

- H2L2:H2L1 normalized median ratio [7]: 49%
- H2L2:H2L1 median scalar value [18]: 0.07 ln
- H2L2:H2L1 normalized median ratio [18]: 51%
- H2L2:H2L1 median scalar value [19]: 0.35 ln
- H2L2:H2L1 median scalar value [20]: 0.45 ln
- H2L2:H2L1 median scalar value [21]: 0.25 ln
- H2L2:H2L1 median scalar value [22]: 0.55 ln
Substance: Pertuzumab Fab heavy chain L124R_L143K

- H2L2:H2L1 normalized median ratio [7]: 12%
- H2L2:H2L1 median scalar value [36]: 2.01 ln
- H2L2:H2L1 normalized median ratio [36]: 88%
- H2L2:H2L1 median scalar value [37]: 2.48 ln
- H2L2:H2L1 normalized median ratio [37]: 92%
- H2L2:H2L1 median scalar value [38]: 2.76 ln
- H2L2:H2L1 normalized median ratio [39]: 8%
Substance: Pertuzumab Fab heavy chain Q179K_S188K

- H2L2:H2L1 normalized median ratio (H2L1 share) [43]: 46%
- H2L2:H2L1 normalized median ratio (H2L1 share) [44]: 15%
- H2L2:H2L1 normalized median ratio, H2L2 share [45]: 54%
- H2L2:H2L1 normalized median scalar value ln(r1/f1) [45]: 0.18
- H2L2:H2L1 normalized median ratio, H2L2 share [46]: 54%
- H2L2:H2L1 normalized median scalar value ln(r1/f1) [46]: 0.15
- H2L2:H2L1 normalized median ratio, H2L2 share [47]: 85%
- H2L2:H2L1 normalized median scalar value ln(r1/f1) [47]: 1.71
- H2L2:H2L1 normalized median ratio, H2L2 share [48]: 86%
- H2L2:H2L1 normalized median scalar value ln(r1/f1) [48]: 1.84
- H2L2:H2L1 normalized median ratio (H2L1 share) [49]: 46%
- H2L2:H2L1 normalized median ratio (H2L1 share) [50]: 14%
Substance: Pertuzumab Fab heavy chain L124E_S188W (H2)

More lines, now with the values behind:

Substance: CAT-2200 lambda light chain construct (L1) V133G_S176R, FLAG-tagged
- H1L1:H1L2 normalized median scalar value ln(r1/f1) [3]: 0.08

Substance: Pertuzumab Fab heavy chain L143K_S188K
- H2L2:H2L1 normalized median ratio [7]: 27%
- H2L2:H2L1 median scalar value [8]: 0.61 ln
- H2L2:H2L1 median scalar value [9]: 1.01 ln
- H2L2:H2L1 normalized median ratio [9]: 73%

Substance: Pertuzumab Fab heavy chain L124W_L143E_K145T
- H2L2:H2L1 normalized median ratio [10]: 33%
- H2L2:H2L1 median scalar value [11]: 0.73 ln
- H2L2:H2L1 normalized median ratio [11]: 67%

Substance: Pertuzumab Fab heavy chain L124R
- H2L2:H2L1 normalized median ratio [7]: 9%
- H2L2:H2L1 median scalar value [23]: 0.29 ln
- H2L2:H2L1 median scalar value [24]: 0.55 ln
- H2L2:H2L1 median scalar value [25]: 2.34 ln
- H2L2:H2L1 normalized median ratio [25]: 91%
- H2L2:H2L1 median scalar value [26]: 2.2 ln

Substance: Pertuzumab Fab heavy chain K145T_S186E_K228D
- H2L2:H2L1 median scalar value [27]: 1.21 ln
- H2L2:H2L1 median scalar value [28]: 0.33 ln

Substance: Pertuzumab Fab heavy chain S186K_S188T (H2), ABD2-His6 tagged
- H2L2:H2L1 normalized median ratio [29]: 70%
- H2L2:H2L1 normalized median scalar value ln(r1/f1) [29]: 0.85
- H2L2:H2L1 normalized median ratio [30]: 62%
- H2L2:H2L1 normalized median scalar value ln(r1/f1) [30]: 0.49
- H2L2:H2L1 normalized median ratio [31]: 38%

Substance: Pertuzumab Fab heavy chain L143E_K145T
- H2L2:H2L1 median scalar value [32]: -0.26 ln
- H2L2:H2L1 median scalar value [33]: -0.32 ln
- H2L2:H2L1 median scalar value [34]: 0.86 ln
- H2L2:H2L1 median scalar value [35]: 3.09 ln

Substance: Pertuzumab Fab heavy chain S186R_S188K
- H2L2:H2L1 normalized median ratio [7]: 31%
- H2L2:H2L1 median scalar value [40]: 0 ln
- H2L2:H2L1 median scalar value [41]: 0.8 ln
- H2L2:H2L1 normalized median ratio [41]: 69%

Substance: CAT-2200 Fab heavy chain, wild type (H1), ABD2-His6 tagged
- H1L1:H1L2 normalized median scalar value ln(r1/f1) [42]: 0.48

Substance: CAT-2200 lambda light chain construct (L1) E124R, FLAG-tagged
- H1L1:H1L2 normalized median scalar value ln(r1/f1) [51]: -0.11

Substance: Pertuzumab Fab heavy chain L124R_K228D
- H2L2:H2L1 normalized median ratio [52]: 33%
- H2L2:H2L1 median scalar value [53]: 1.97 ln
- H2L2:H2L1 normalized median ratio [53]: 67%

Substance: CAT-2200 lambda light chain construct (L1) S180E, FLAG-tagged
- H1L1:H1L2 normalized median scalar value ln(r1/f1) [54]: 0.94
- H1L1:H1L2 normalized median scalar value ln(r1/f1) [55]: 2.16
- H1L1:H1L2 normalized median scalar value ln(r1/f1) [56]: 2.32
- H1L1:H1L2 normalized median scalar value ln(r1/f1) [57]: 2.24
- H1L1:H1L2 normalized median scalar value ln(r1/f1) [58]: 2.07
